Experimental data reported in patent US20220112288A1 (published 2022).

Columns and labels:
[1] = biological target: T1, human CD4 on the surface of SKW3 cells or human PBMCs (human, UniProt P01730 26-458); test: FACS confirmation, supernatant on human PBMCs, anti-mouse Fc A647, CD4+ gate
T1 construct: whole, on cells; SKW3 CD4 knockout cells served as the negative cell line; also called hCD4; SKW3 WT

[2] = biological target: T1, human CD4 on the surface of SKW3 cells …; test: FACS confirmation, supernatant on SKW3 WT cells, anti-human kappa FITC; background gMFI 2500
[3] = biological target: T1, human CD4 on the surface of SKW3 cells …; test: FACS primary screen, non-clonal hybridoma supernatant, SKW3 vs SKW3 CD4 KO cells, anti-human kappa FITC
[4] = biological target: T1, human CD4 on the surface of SKW3 cells …; test: FACS confirmation, supernatant on SKW3 WT cells, anti-mouse Fc A647; background gMFI 3300
[5] = biological target: T1, human CD4 on the surface of SKW3 cells …; test: FACS binning on SKW3 cells; competitor RPA-T4-PE-Dazzle 594 (its signal read); background 783, max binding 15000
[6] = biological target: T1, human CD4 on the surface of SKW3 cells …; test: FACS binning on SKW3 cells; competitor OKT4a, anti-human A647 secondary (its signal read); background 5000, max binding 35000
[7] = biological target: T1, human CD4 on the surface of SKW3 cells …; test: FACS primary screen, non-clonal hybridoma supernatant, SKW3 vs SKW3 CD4 KO cells, anti-mouse Fc A647
[8] = biological target: T2, huCD4-HIS (human, UniProt P01730 26-390, limits assumed); test: ELISA binning; competitor ibalizumab; 100 ng/mL huCD4-HIS, anti-HIS HRP detection; background 45, max binding 3000000
T2 construct: not shown: HIS tag

[9] = biological target: T1, human CD4 on the surface of SKW3 cells …; test: FACS binning on SKW3 cells; competitor OKT4-Alexa Fluor 488 (its signal read); background 2163, max binding 8200
[10] = biological target: T1, human CD4 on the surface of SKW3 cells …; test: FACS confirmation, supernatant on human PBMCs, anti-mouse Fc A647
[11] = biological target: T3, Recombinant human CD4 (R&D Systems, Cat. 10327-CD) (human, UniProt P01730 26-390, limits assumed); test: BLI (Octet Red 384), non-clonal supernatant captured on AMC sensors, 100 nM human CD4
T3 construct: Bought protein; also called huCD4

[12] = biological target: T3, Recombinant human CD4 (R&D Systems, …); test: BLI (Octet Red 384), non-clonal supernatant captured on AMC sensors, 100 nM human CD4, 1:1 local fit;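 further: hybridoma antibodies from supernatants, one CD4 concentration giving single-point kinetics per supernatant, with curves fitted over both association and dissociation phases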

Binder	PBMCs, anti-mFc 647 CD4+ gate - RL1 Binding [1]	SKW3 WT anti-hu Kappa FITC, gMFI [2] [gMFI]	SKW3 WT vs KO anti-hKappa-FITC [3] [ratio]	SKW3 WT anti-mFc 647, gMFI [4] [gMFI]	RPA-T4-PE-Dazzle 594 signal [5]	OKT4a anti-hu A647 Secondary signal [6]	SKW3 WT vs KO anti-mFc-647 [7] [ratio]	Ibalizumab ELISA binning signal [8]	OKT4 A488 signal [9]	PBMCs, anti-mFc 647 CD4+ Percent Bound of Viable [10] [%]	Response [11]	Kd [12] [nM]	koff [12] [s⁻¹]	kon [12] [M⁻¹ s⁻¹]
75110_03L12A (antibody, V domains shown, Tested here as non-clonal hybridoma supernatant from AlivaMab Mouse Kappa mice (detected with anti-mouse Fc and anti-human kappa)) VH: QVQLQQWGAGLLKPSETLSLTCAVYGGSFSGYYWSWIRQPPGKGLEWIGEINHSGSTNYNPSLKSRVTISVDTSENQFSLTLISVTAADTAVYYCVRLINWFDPWGQGTLVTVSS VL: DIQMTQSPSSVSASVGDRVTITCRASQDISNWLAWYQQKPGKAPKLLIFAASSLQSGVPSRFSGSGSGTDFTLTISSLQPDDFATYYCQQANSFPYTFGQGTNLGIK	229000	8010	2.5	27300	20700	5720	4.2	885000	9750	28				
75110_04P08A (antibody, V domains shown, Tested here as non-clonal hybridoma supernatant from AlivaMab Mouse Kappa mice (detected with anti-mouse Fc and anti-human kappa)) VH: QVQLQQWGAGLLKPSETLSLTCAVYGGSLSGYYWSWIRQSPGKGLEWIGEINQSGSTNYNPSLKSRVTISVDTSKDQFSLRLTSVTAADTAVYYCTRVLNWFDPWGRGTLVTVSS VL: DIQMTQSPSSVSASVGDRVTLTCRASQDISNWLAWYQQKPGKAPKLLIYAASSLQSGVPSRFSGSGSGTDFTLTISSLQTEDFATYYCQQANSFPYTFGQGTKLEIK	260000	7420	3	25300	19900	6060	8.4	1.57e+06	9760	28				
75110_05B13A (antibody, V domains shown, Tested here as non-clonal hybridoma supernatant from AlivaMab Mouse Kappa mice (detected with anti-mouse Fc and anti-human kappa)) VH: QVLLEQWGAGLLKPSETLSLTCAVYGGSFSGYYWTWIRQPPGKGLEWIGEINHRGSTNYNPSLKSRVTISIDTSKNQFSLKVKSVTAADTAMYYCTRPDSNWFDPWGQGTLVTVSS VL: DIQMTQSPSSVSASVGDRVTITCRASQDISNWLAWYQQKPGKAPKLLIFAASSLQSGVPSRFSGSGSGTDFTLTISSLQPEDFATYYCQQANSFPLTFGGGTKVEIK	228000	7310	2.4	26000	20300	5340	3.1	1.03e+06	9670	27				
75110_04G16A (antibody, V domains shown, Tested as non-clonal AlivaMab Mouse hybridoma supernatant (chimeric: human variable regions and human kappa, mouse Fc, captured by anti-mouse IgG Fc sensors); also called ADS75110 non-clonal supernatant 04G16A) VH: QVQLQESGPGLVKPSQTLSLTCTVSGDSISSGYYYWSWIRQHPGKGLEWIGYISYSGSTYYNPSLKSRLTISVNTSKNQFSLKLSSLTAADTAVYYCARDRPSNFDAFDIWGQGTMVTVSS VL: EIVLTQSPGTLSLSPGERATLSCRASQSVGSTYLAWYQQKPGQAPRLLIYGAFSRATGIPDRFSGSGSGTDFTLTISRLEPEDFAVYYCQQYGSSPLTFGPGTKVDIK											0.15	0.95	7.1e-05	74000
75110_01G11A (antibody, V domains shown, Tested as non-clonal AlivaMab Mouse hybridoma supernatant (human variable regions and human kappa, mouse Fc); also called ADS75110 non-clonal supernatant 01G11A) VH: EVQLVESGGGLVQPGGSLRLSCAASGFTFSSYDMHWVRQATGKGLEWVSTIGTAGDTYYPGSVKGRFTISRENARNSLFLQMNSLRAGDTAVYYCARGGDYYYGMDVWGQGTTVTVSS VL: EIVLTQSPGTLSLFPGERATLSCRASQNTYSSYLAWYQQKPGQAPRLLIYGASNRATGIPDRFSGSGSGTDFTLTISRLEPEDFAVYYCQQHGTSPFTFGPGTKVDIK											0.04	5.3	0.00025	47000
75110_08H11A (antibody, V domains shown, Tested as non-clonal AlivaMab Mouse hybridoma supernatant (human variable regions and human kappa, mouse Fc); also called ADS75110 non-clonal supernatant 08H11A) VH: EVQLVESGGGLVQPGGSLRLSCAASGFTFSSYDMHWVRQATGKGLEWVSTIGTAGDTYYPGSVKGRFTISRENAKNSLYLQMNSLRAGDTAVYYCARGGYSYYGMDVWGQGTTVTVSS VL: EIVLTQSPGTLSLSPGERATLSCGASQSVSSTYLAWYQQKPGQAPRLLIYGASSRATGIPDRFSGSGSGTDFTLTISRLEPEDFAVYYCQQFGSSPFTFGPGTKVDIK											0.08	2.9	0.00065	230000
75110_01N04A (antibody, V domains shown, Tested as non-clonal AlivaMab Mouse hybridoma supernatant (human variable regions and human kappa, mouse Fc); also called ADS75110 non-clonal supernatant 01N04A) VH: EVQLVESGGGLVQPGGSLRLSCAASGFTFSNYDMHWVRQATGKGLEWVSTIGTAGDTYYPGSVKGRFTISRENAKNSLYLQMNSLRAGDTAVYYCARGGDFYYGLDVWGQGTTVTVSS VL: not shown											0.06	2.2	4.8e-05	22000
75110_04F22A (antibody, V domains shown, Tested as non-clonal AlivaMab Mouse hybridoma supernatant (human variable regions and human kappa, mouse Fc); also called ADS75110 non-clonal supernatant 04F22A) VH: EVQLVESGGGLVQPGGSLRLSCAASGFTFSSYDIHWVRQATGKGLEWVSTIGTAGDTYYPGSVKGRFTISRENAKNSLYLQMNSLRAGDTAVYYCARGGYYYYGMDVWGQGTTVTVSS VL: EIVLTQSPGTLSLSPGERATLSCRASQSVYSSYLAWYQQKPGQAPRLLIYGASSRATGIPDRFSGSGSGTDFTLTISRLEPEDFAVYYCQQFGTSPFTFGPGTKVDIK											0.05	< 0.001	< 1e-07	15000
75110_04P06A (antibody, V domains shown, Tested as non-clonal AlivaMab Mouse hybridoma supernatant (human variable regions and human kappa, mouse Fc); also called ADS75110 non-clonal supernatant 04P06A) VH: EVQLVESGGGLVQPGGSLRLSCAASGFTFSNYDMHWVRQATGKGLEWVSTIGTAGDTYYPGSVKGRFTISRENAKNSLYLQMNSLRAGDTAVYYCARGGDYYYGMDVWGQGTTVTVSS VL: EIVLTQSPDTLSLSPGERATLSCRASQSLSSVYLAWYQQKPGQAPRLLIYGASSRATGIPDRFSGSGSGTDFTLTINRLEPEDFVVYYCQQYGSSPFTFGPGTKVDIK											0.06	< 0.001	< 1e-07	12000
75110_01K10A (antibody, V domains shown, Tested as non-clonal AlivaMab Mouse hybridoma supernatant (human variable regions and human kappa, mouse Fc); also called ADS75110 non-clonal supernatant 01K10A) VH: EVQLVESGGALVQPGGSLRLSCAASGFTFRNYDMHWVRQATGKGLEWVSTIGTAGDTYYPGSVKGRFTISRENAKNSLYLQMNSLRAGDTAVYYCARGGDYYYGMDVWGQGTTVTVSS VL: EIVLTQSPDTLSLSPGERATLSCRASQSLSSVYLAWYQQKPGQAPRLLIYGASSRATGIPDRFSGTGSGTDFTLTISRLEPEDFAVYYCQQYGSSPFTFGPGTKVDIK											0.03	340	0.00042	1200
75110_07E04A (antibody, V domains shown, Tested as non-clonal AlivaMab Mouse hybridoma supernatant (human variable regions and human kappa, mouse Fc); also called ADS75110 non-clonal supernatant 07E04A) VH: EVQLVESGGGLVQPGGSLRLSCAVSGFTFSSYDMHWVRQATGKGLEWVSTIGTAGDTYYPGSVKGRFTISRENAKKFLYLQMNSLRAGDTAVYYCARGGYYYYGMDVWGQGTTVTVSS VL: not shown											0.01	11000	0.013	1200
75110_01J17A (antibody, V domains shown, Tested as non-clonal AlivaMab Mouse hybridoma supernatant (human variable regions and human kappa, mouse Fc); also called ADS75110 non-clonal supernatant 01J17A) VH: EVQLVESGGGLVQPGGSLRLSCAASGFTFSSYDMHWVRQGTGKGLEWVSTIGTADDTYYPGSVKGRFTISRENAENSLYLQMNSLRAGDTAVYYCARGGDYYYGMDVWGQGTTVTVSS VL: EIVLAQSPGTLSLSPGERATLSCRASQSVYISYLAWYQQKPGQAPRLLIYGASSRATGIPDRFSGSGSGTDFTLTITRLEPEDFAVYYCQQFGSSPFTFGPGTKVDFK											0.06	< 0.001	< 1e-07	37000
75110_05K11A (antibody, V domains shown, Tested as non-clonal AlivaMab Mouse hybridoma supernatant (human variable regions and human kappa, mouse Fc); also called ADS75110 non-clonal supernatant 05K11A) VH: EVQLVESGGGLVQPGGSLRLSCAASGFTFSSYDMHWVRQPTGKGLEWVSTIGTAGDTYYPASVKGRFTISRENAKNSLYLQMNSLRAGDTAVYYCARGGFYYYGMDVWGQGTTVTVSS VL: EIVLTQSPGTLSLSPGERVTLSCRASQSVSNTYLAWYQQKPGQAPRLLIYGASSRATGIPDRFSGSGSGTDFTLTISRLEPEDFVVYYCQQHGSSPFTFGPGTKVDIK											0.05	< 0.001	< 1e-07	12000
75110_08H06A (antibody, V domains shown, Tested as non-clonal AlivaMab Mouse hybridoma supernatant (human variable regions and human kappa, mouse Fc); also called ADS75110 non-clonal supernatant 08H06A) VH: EVQLVESGGGLVQPGGSLRLSCAASGFTFSNYDMHWVRQATGKGLEWVSTIGTAGDTYYPGSVKGRFTISRENAKNSLYLQMNSLRAGDTAVYYCARGGYDYYGMDVWGQGTTVTVSS VL: EIVLTQSPGTLSLSPGERATLSCRASQSITSIYLAWYRQKPGQAPRLLIYGASSRATGIPDRFSGSGSGTDFTLTISRLEPEDFAVYYCQQYGSSPFTFGPGTKVDIK											0.06	< 0.001	< 1e-07	120000
